Laboratory results from patent publication US20180319878A1 (NANYANG TECHNOLOGICAL UNIVERSITY, published 2018).

Biological target: T1, recombinant human cANGPTL4 (C terminal region of angiopoietin-like 4) (human, UniProt Q9BY76 186-406, limits assumed)
T1 construct: domain: c terminal region; Immobilized on the chip in SPR; added at 6 µg/ml to HMVECs in cell assays; also called rh-cANGPTL4; rhcANGPTL4
T1 sequence (looked up): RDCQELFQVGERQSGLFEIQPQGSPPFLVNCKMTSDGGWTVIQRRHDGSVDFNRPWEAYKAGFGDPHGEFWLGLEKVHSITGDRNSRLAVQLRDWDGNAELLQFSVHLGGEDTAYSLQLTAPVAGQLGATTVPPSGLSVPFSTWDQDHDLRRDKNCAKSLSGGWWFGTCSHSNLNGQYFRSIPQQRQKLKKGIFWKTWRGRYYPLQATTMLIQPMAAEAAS
Test: SPR (BIAcore 2000), immobilized cANGPTL4, global fitting
Description: Six concentrations (0.16, 0.32, 0.63, 1.25, 2.50 and 5.0 μM) of recombinant integrin β1, first extracellular domain of VE-cadherin (ECD1), extracellular repeat 1 domain of VE-cadherin (EC1), occludin or JAM-A were used.
Global fitting of the SPR data was performed as previously described to determine the KD. Preinjection or preincubation with the indicated antibodies or preimmune IgG was performed to determine specific interactions. Each sensorgram was corrected by subtracting a sensorgram obtained from a reference flow cell with no immobilized protein. […] Values are mean±S.D. (n=3)

- Kd: 58.7 nM
B1: claudin-5 (SPR analyte) (other, UniProt O00501 1-218, looked up)
chain: MGSAALEILGLVLCLVGWGGLILACGLPMWQVTAFLDHNIVTAQTTWKGLWMSCVVQSTGHMQCKVYDSVLALSTEVQAARALTVSAVLLAFVALFVTLAGAQCTTCVAPGPAKARVALTGGVLYLFCGLLALVPLCWFANIVVREFYDPSVPVSQKYELGAALYIGWAATALLMVGGCLLCCGAWVCTGRPDLSFPVKYSAPRRPTATGDYDKKNYV
